Assay results from paper PMC8476121 (2021).

Molecular target: NB88
Assay: SPR

Kd: 3.9 nM
B1: CaSR ECD (extracellular domain of human calcium-sensing receptor) (domain or fragment)
chain: YGPDQRAQKKGDIILGGLFPIHFGVAAKDQDLKSRPESVECIRYNFRGFRWLQAMIFAIEEINSSPALLPNLTLGYRIFDTCNTVSKALEATLSFVAQNKIDSLNLDEFCNCSEHIPSTIAVVGATGSGVSTAVANLLGLFYIPQVSYASSSRLLSNKNQFKSFLRTIPNDEHQATAMADIIEYFRWNWVGTIAADDDYGRPGIEKFREEAEERDICIDFSELISQYSDEEEIQHVVEVIQNSTAKVIVVFSSGPDLEPLIKEIVRRNITGKIWLASEAWASSSLIAMPQYFHVVGGTIGFALKAGQIPGFREFLKKVHPRKSVHNGFAKEFWEETFNCHLQEGAKGPLPVDTFLRGHEESGDRFSNSSTAFRPLCTGDENISSVETPYIDYTHLRISYNVYLAVYSIAHALQDIYTCLPGRGLFTNGSCADIKKVEAWQVLKHLRHLNFTNNMGEQVTFDECGDLVGNYSIINWHLSPEDGSIVFKEVGYYNVYAKKGERLFINEEKILWSGFSREVPFSNCSRDCLAGTRKGIIEGEPTCCFECVECPDGEYSDETDASACNKCPDDFWSNENHTSCIAKEIEFLS
